± gives the uncertainty stated by the source.
assay: amyloid nucleation score (Sup35N fusion, yeast selection) (log enrichment); library NNK3; higher = more nucleation; inactive = no reads after selection
Outline: (§1)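 Using DiMSum, nucleation scores were taken as the log enrichment of output over input reads, centred on the mode score of non-aggregating sequences. The input and output reads came from Illumina sequencing of plasmid inserts, with sequences under 100 input reads excluded. The yeast were psi-negative, expressed Sup35N fused to peptides of 20 random codons, were induced with 100 μM copper sulfate for 24 hours, and were grown 7 days at 30°C on medium lacking adenine and uracil.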

Substance | amyloid nucleation score
SSSNLLKPSYFCKGSRGASQ | inactive
CRCFLPWGWLV | inactive
LFGSF | inactive
NLTLVVHYISRQSISEHYLR | inactive
KFFQTSLRTAIRLWKSAISC | inactive
FEHPHGGVNS | inactive
PECVVKSTN | inactive
SWTFRTLSKCVYYSFCREMD | inactive
IRRLDEVNEWANSYKLWKKQ | inactive
SCMKDMWFVRVMIGLEKKNS | inactive
YNVFEALLNRWH | inactive
TLFQDSLLYVSWRSES | 0.118 ± 0.34
TFEWCMPFFTNFSLMFFFYW | inactive
DALAVSINCSLFRCCSM | 3.3 ± 0.055
SSSTGAFGDSGGR | inactive
SIKFYLRLMTSLKVKLY | inactive
RFFHYYVSNVWTSNPFSTYI | -0.42 ± 0.62
SILGFT | inactive
CKLRLWSEFSLVTSRSIYIA | inactive
TSLGFSLSSSTDAFVEKFEG | 1.56 ± 0.077
SVYLT | inactive
TETSWDGVVLSLISCRFQSY | 3.02 ± 0.079
TGYWI | inactive
ATSTTSLRVNLDHCAETFQN | 0.238 ± 0.44

Substance | amyloid nucleation score
YTRGTWS | inactive
YVLRCVFSSDNKDGAWTTWI | inactive
CDSRSCFKVYASLAARSDQR | 2.12 ± 0.074
TLDAILNLHTS | inactive
TYLCFYTKRPDAVYWSTLDH | inactive
VSALSGGFMENCCQSNFLTP | inactive
LFNPMKTVYWHNLAIWHYDV | inactive
SEMHRERDTMCKVLPDNDKN | inactive
AIYRIWCYGA | -0.088 ± 0.9
PYKNI | inactive
IIADKVQSLISFDNVGMCQW | inactive
CKLNICRNVEETTIFRLGDV | 1.39 ± 0.11
LARLCCLSVSFSKLLIVFTI | inactive
TRITMASSREV | inactive
RTWTSCDVICLGICLRSLAK | inactive
NFFSA | -0.51 ± 0.73
RGTMLLRNISIVCQLYPLST | inactive
STSFNIRIFMYKFAYF | 1.31 ± 0.095
AVRCPLNMHLRGRAVVQYKG | inactive
VFLNWRGMNHSLRAFNIESQ | inactive
EQTLGYNLIRAWLSKCCWMT | inactive
SNVVSSI | inactive
WPIATTMSKGVCVRRVRGRD | -0.411 ± 0.69
CLLTLMREVSCLLYFYHRAW | 1.56 ± 0.091

Substance | amyloid nucleation score
SDCGDFRLMVFQKSRRDSWN | inactive
LNTDESWGFMCLTKFE | inactive
RCHYSSWWESPCQSVM | inactive
MVCNGFRDDRVMIVK | inactive
ERLGVL | inactive
DIVLFLG | inactive
CEMGFLEPL | inactive
YNCRVAVRWYS | inactive
RITGSRFCHCDLVNCDATVC | inactive
SGKDIALMVHCVTVMWDQAY | inactive
FDDLSARVPLTVTLWPSHTA | inactive
VNVVEFTRFRAW | 0.585 ± 0.35
FMFASQLMRFFHSWTVSRSS | inactive
RAYGPGRSASEALGRLCVGL | inactive
MSPLGTCYRILKLDYCKYAV | -0.328 ± 0.55
RGFNYKMLFSSDLD | inactive
IRVMNEMYLFLNRVYFAFSY | inactive
NGTATADRSNKSVPFPSI | inactive
FFIDQLKEFSHY | inactive
FKDVSVPIR | inactive
DGEGN | inactive
YVIYFSN | -0.389 ± 0.93
RSVVLNRADMECKQELVNLN | inactive
DSSDVVSVLVLSEMCAALVT | inactive

Substance | amyloid nucleation score
TGSVVRDMVMAFTD | -0.458 ± 0.93
ILISFNQLKP | 1.18 ± 0.13
SFECDRYYFSWDGFMSGLT | inactive
DDMTYGSVCNKSGRTPLLPS | inactive
SVRRQHPFN | inactive
VRMQLMWCGP | inactive
RTCSLRCFCYCHLYFYDVNT | inactive
LASVLEYESWLSLFIWQSKH | 0.195 ± 0.34
FVSEFMTSSTYLVPTVHITV | inactive
EGRRIAGNARDRDHDLQVGR | inactive
LYYKSLGRCRNYLYCSH | 0.596 ± 0.12
GRRSNCINSVNSGTRGRRRA | inactive
DVMRVWFTEYSMSTTVGMAV | inactive
CFSDGPLRVHSIGQRWLRCR | inactive
QGNCVNRIC | inactive
RTKKMRNGASHRVMS | inactive
LKFLLRNILVRYYMDVGPVS | inactive
TSLWRLL | inactive
TKWANR | inactive
AWTGGSLGLTNI | inactive
FNRKCVSVCRVRGGICWRSQ | inactive
GTYLGELVTGLTPGRCPGHF | inactive
HRLVGTNISSTR | inactive
YFDSWTSMSAYYMGSFHW | inactive

Substance | amyloid nucleation score
NDSLTLIWNGGSGYDVIKFE | inactive
CFCLSRL | inactive
EQLFD | inactive
TPFSCEYNIMWESRGGDWSR | inactive
GCLEFGVMEFPGEDEFNFLG | inactive
MLPVIHIGVVSPRTFEQSSC | inactive
SDRFYHCTFHAVTVRWKQRV | inactive
LPWSINRCNRVENQLVYVWN | 1.1 ± 0.14
DLSRDMTNVSCRKSGLWGSG | inactive
FTINV | inactive
YWMMLRT | inactive
FKPTRSHQGSFSSVTMFLVG | 0.261 ± 0.29
TYCSYTL | inactive
CLMSVSAPFHVFALYIQLFC | inactive
RYVGAVWYYTMNIVNYNSFI | 1.7 ± 0.06
YVSPNF | inactive
TWLFFRNHTQAFCSYLAHWG | inactive
AYELHKTPNGPSPSESLALI | inactive
NVQSSGSRGAR | inactive
SMTHRPTAVHSDVHGQCVKW | inactive
MGPWCRKWIICLTRVSYRVG | inactive
HSIIRVSFLDMVCAGNSIVR | -0.504 ± 1.9
IFTDLVA | inactive

assay: amyloid nucleation score (Sup35N fusion, yeast selection) (log enrichment); library NNK2; higher = more nucleation; inactive = no reads after selection
Outline: as §1

Substance | amyloid nucleation score
LCIGYFLV | -1.62 ± 1.1
PSGGFTTSMVTDDIDVSARH | 0.708 ± 0.53
YYSKNAVVWVNGCVRRVMII | 0.127 ± 0.63
LVGKFNWCEVQKKCSRFRCR | -0.29 ± 0.62
YGLDRIFVSGSMNATMIKHN | inactive
TFDPMVGLGISLSALCMGRL | -0.104 ± 0.39
ELPMLGFVCNYSKHQLFIFY | 5.04 ± 0.1
SYRSVYYLVMGFPIGHH | -1.67 ± 1
PMRKADRYSSSSET | -0.479 ± 1
IYTSSGL | -0.902 ± 0.54
FIYSHYWWLWLYHTATVIPH | -1.45 ± 0.62
LSSGIMSGCEGGAWCCH | 0.605 ± 0.66
EYSGLDVTDCQDT | 0.44 ± 0.36
LTIPEMNQGLQLSLSIHAQM | -0.902 ± 0.63
FSVLWEMDRLVHG | 0.95 ± 0.29
VEVGLIVGSCSILI | -0.525 ± 0.64
YKRCYIKIEWFQMCFNVVTR | inactive
AIMGHGLPYGTGLMEVGGAK | 5.13 ± 0.084
SILLYKFK | 1.54 ± 0.12
RWCQE | -0.288 ± 0.53
CGRLGLHYQCMLCCGIGSIL | 2.23 ± 0.27
DKYSWRKNGCGGWCVTTVVG | 0.573 ± 0.3

Substance | amyloid nucleation score
TSSTSRVDRACPGDSWPDID | -0.068 ± 0.42
IIRVSSCPCTNI | inactive
RSWKLGVDGWPLMSEFP | 1.64 ± 0.29
FKKTLTGCYGGGRGAMNNGK | inactive
ANTFIPFFGISSVRSGRNAA | 2.65 ± 0.11
VIVCCGSCLHRE | 9.721 ± 0.05
NKRLLLMFNRWDCVVSWDKC | -1.31 ± 0.78
NPSLELYKYISAIDMGINPP | inactive
SIARHFRGFV | 0.734 ± 0.47
NRFDDVSDDVKTCC | 5.82 ± 0.059
EALYALLSGGASNLKSHRLL | 0.26 ± 0.65
MLSDSLLDCRVLLMVFGRET | 3.81 ± 0.051
FSSSWKGRFVNNSRVVGKSR | -0.367 ± 0.43
EHTFLFA | -0.297 ± 1.1
HRCNMGLSWTGVYQRVGKSS | 0.757 ± 0.57
NCSKENKPGVIETISVGMGP | 1.01 ± 0.48
YRFKLFTHRYILFNWVFLLL | inactive
GMIFFHGNSLGVTDDSHK | 0.811 ± 0.82
SLELA | 0.472 ± 0.8
MPGKPWTGVVLKPRSESPAW | 0.057 ± 0.48
ISHMYCSFGSLVLFSGIRFR | -0.774 ± 0.53
LLWPVA | 0.386 ± 0.46

Reference: the supplement of paper PMC12042874
